From patent publication US20220356246A1 (NANJING IMMUNOPHAGE BIOTECH, published 2022) come the findings set out here.

In assay [1] the target is T1, human ROR1 expressed on CHO-K1 cells (human, UniProt Q01973 30-937).
T1 construct: whole, on cells; also called CHO-K1-ROR1
Put plainly: flow cytometry on CHO-K1-ROR1 cells, PE anti-human IgG-Fc. As to the method:
CHO-K1 cell line was transduced with lentivector carrying human ROR1. CHO-K1-ROR1 cells were resuspended in FACS buffer and Fc receptors were blocked prior to incubation with purified ROR1 mAbs. 5×10⁵ cells in 100 μL FACS buffer were aliquoted to separate tubes and the purified mAb was added. Antibody concentration is from about 30 μg/mL to about 0.000508 μg/mL. Cells were incubated at 4 degrees for 1 hour, then washed twice with excess FACS buffer. Cells were resuspended in 100 μL FACS buffer and 0.5 μg of anti-human IgG-Fc (PE) secondary antibody (ab98596) was added to samples, incubated for 30 minutes and washed twice with excess FACS buffer.

The target in assay [2] is T2, Human ROR1-ECD (human, UniProt Q01973 30-406).
T2 construct: extracellular domain; Analyte in the Fortebio Octet assay; also called ROR1-derived extracellular domain fragment
T2 sequence (Q01973 30-406): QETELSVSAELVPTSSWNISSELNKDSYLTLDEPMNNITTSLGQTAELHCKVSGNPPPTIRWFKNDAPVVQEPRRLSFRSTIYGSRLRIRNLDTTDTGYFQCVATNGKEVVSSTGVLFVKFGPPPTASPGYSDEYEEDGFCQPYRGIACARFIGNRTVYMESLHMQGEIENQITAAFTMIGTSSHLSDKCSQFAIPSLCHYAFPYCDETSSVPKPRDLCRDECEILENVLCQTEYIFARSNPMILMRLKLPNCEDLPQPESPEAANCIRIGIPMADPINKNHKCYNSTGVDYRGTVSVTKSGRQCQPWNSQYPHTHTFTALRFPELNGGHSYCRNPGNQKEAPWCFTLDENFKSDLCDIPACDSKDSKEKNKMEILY
Put plainly: BLI (Fortebio Octet RED96), mAb on AHC biosensor, human ROR1-ECD as analyte. As to the method: Human ROR1-ECD was diluted in KB buffer (0.1% BSA, 0.05% Tween 20, 1×PBS, pH 7.4) to various concentrations (from about 500 nM to about 62.5 nM), and the mAb was also diluted in KB buffer to 10 μg/mL. The mAb was loading to anti-hIgG Fc Capture (AHC) Biosensors (PALL, Fortebio), and the diluted Human ROR1-ECD was associated with Mab, then dissociated in KB buffer. Association (k-on) and dissociation (k-off) rate constants were calculated based on a 1:1 Langmuir binding model using Fortebio Date Analysis 7.1 software (PALL, Fortebio).
Background: In BLI a coated tip is dipped into the sample, and binding shifts an interference pattern.

T1 sequence (Q01973 30-937): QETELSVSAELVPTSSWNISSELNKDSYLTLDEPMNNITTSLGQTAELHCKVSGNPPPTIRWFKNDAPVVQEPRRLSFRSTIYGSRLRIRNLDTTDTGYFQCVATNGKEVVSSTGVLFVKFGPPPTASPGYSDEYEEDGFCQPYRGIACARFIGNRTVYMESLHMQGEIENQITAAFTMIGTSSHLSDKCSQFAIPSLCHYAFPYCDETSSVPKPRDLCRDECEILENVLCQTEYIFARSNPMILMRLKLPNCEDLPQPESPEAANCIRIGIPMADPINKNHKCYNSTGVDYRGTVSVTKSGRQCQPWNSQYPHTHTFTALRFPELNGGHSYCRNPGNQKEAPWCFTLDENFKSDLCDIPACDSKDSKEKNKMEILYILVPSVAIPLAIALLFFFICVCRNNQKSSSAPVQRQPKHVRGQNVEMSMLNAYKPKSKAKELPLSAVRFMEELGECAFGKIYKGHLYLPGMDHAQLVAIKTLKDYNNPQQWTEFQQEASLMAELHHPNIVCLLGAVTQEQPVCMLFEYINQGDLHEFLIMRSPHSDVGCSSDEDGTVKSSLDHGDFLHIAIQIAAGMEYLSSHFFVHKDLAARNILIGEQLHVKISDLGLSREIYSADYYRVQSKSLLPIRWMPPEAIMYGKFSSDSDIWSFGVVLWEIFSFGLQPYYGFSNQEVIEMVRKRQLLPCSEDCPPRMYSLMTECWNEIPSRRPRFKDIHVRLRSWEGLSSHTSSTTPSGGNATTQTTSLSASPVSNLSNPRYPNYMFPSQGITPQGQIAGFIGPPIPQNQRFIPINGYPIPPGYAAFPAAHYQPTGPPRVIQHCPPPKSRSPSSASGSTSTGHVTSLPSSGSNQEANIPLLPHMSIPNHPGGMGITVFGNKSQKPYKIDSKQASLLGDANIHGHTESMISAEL

B1: anti-ROR1 antibody clone G6 (antibody, V domains shown)
VH: EVQLVESGGGVVQPGGSLRLSCAASGFTFDDYAMHWVRQAPGKGLEWVSLISGDGGSTYYADSVKGRFTISRDNAKNSLYLQMNSLRAEDTAVYYCARDNWNDVYYYYGMDVWGQGTTVTVSS
VL: DIQLTQSPSSLSASIGDTVTISCQASRDISDYLNWYQHKPGKAPKLLIYDASNLATGVPSRFSGSGSGTDFTLTIKSLQPEDVATYFCQQDDLLPLTFGGGTKVDIK
For the molecule B1, the binding result in assay [1] and in assay [2] was “binds” throughout.

B2: anti-ROR1 antibody clone C3 (antibody, V domains shown)
VH: QVQLQESGPGLVKPSETLSLTCTVSGGSISSYYWSWIRQLPGKGLEWIGYMHYSGSTSYNPSLKGRLTISVDTSTNQFSLKLGSVTAADTAVYYCARYYYHDSSGYYSYFDYWGQGTLVTVSS
VL: EIVLTQSPGTLSLSPGERATLSCRASQSVSSYLAWYQQKAGQAPRLLIYDASNRASGIPARFSGSGSGTDFTLTISSLEPEDFAVYYCQQRSNWPPTFGGGTKVEIK
notes: also called anti-ROR1 (clone C3)
In the case of B2, the binding result in assay [1] and in assay [2] was “binds” each time.

B3: anti-ROR1 antibody clone G3 (antibody, V domains shown)
VH: QVQLQQWGAGLLKPSETLSLTCAVYGGSFSGYYWSWIRQPPGKGLEWIGEINHSGSTSYNPSLKSRVTISVDTSKNQFSLKLSSVTAADTAVYYCARGHSSGWYRRYFDLWGRGTLVTVSS
VL: EIVLTQSPATLSLSPGERATLSCRASQSVSSYLAWYQQKPGQAPRLLIYDASNRATGIPAKFSGSGSGTDFTLTISSLEPEDFAVYYCQQRSNWPPTFGGGTKVEIK
For the molecule B3, the binding result in assay [1] and in assay [2] was “binds” throughout.
